Reference: publication PMC2806950

Experiments:
[1] = molecular target: M.EcoKI, DNA methyltransferase component (M2S1) of the EcoKI type I R/M system (E. coli K12) (UniProt P08957); experiment: fluorescence polarisation; competition with DNA: M.EcoKI titrated into 50 nM Ocr and 2 nM of a 21-bp DNA duplex fluorescently labelled at the 5' end; anisotropy of the DNA monitored
[2] = test system: M.EcoKI (M2S1 methyltransferase core of EcoKI); experiment: fluorescence anisotropy; design: unit not given here; settings: Anisotropy: M.EcoKI titrated into 2 nM labelled duplex (with 50 nM Ocr in the competition series); buffer and temperature not given (ref. 12). ITC buffer …
[3] = molecular target: T1, M.EcoKI methyltransferase (M2S1 core of the EcoKI type I restriction/modification enzyme) (UniProt P05719+P08957); experiment: ITC; settings: pH 8.0, 25 °C, no NaCl, 6 mM MgCl2
[4] = molecular target: T1, M.EcoKI methyltransferase (M2S1 core of the EcoKI type I restriction/modification enzyme); experiment: ITC in two buffers of different ionisation enthalpy (comparison of C1 and C2); settings: pH 8.0; 25 °C; no NaCl; 6 mM MgCl2; 20 mM Tris-HCl pH 8.0 (47.4 kJ/mol) versus 20 mM Hepes (20.5 kJ/mol)
[5] = molecular target: M.EcoKI, DNA methyltransferase component (M2S1) of the EcoKI type I R/M system (E. coli K12) (UniProt P08957); experiment: ITC; Ocr (typically 40 uM) titrated into M.EcoKI (4 uM); 20 mM Tris-HCl pH 8.0, 6 mM MgCl2, 7 mM 2-mercaptoethanol, 100 uM SAM, with or without 500 mM NaCl; 10 to 30 °C

“Ocr chemically modified with EDC/HOBt and ammonium hydroxide for 180 min (N-series) (from UniProt P03775 1-117) (natural protein)” showed a Kd [1] of 12.6 nM.
In the case of 21-bp DNA duplex, the Kd [2] is reported as 2.1.
In the case of “Ocr (overcome classical restriction; gene 0.3 protein), unmodified wild type”, the ΔH ([3]; 20 mM Hepes in place of Tris-HCl (heat of ionization = 20.5 kJ/mol as printed), pH not restated, taken as 8.0) is reported as “− 90.0 kJ/mol”, the ΔH ([3]; 20 mM Tris-HCl, pH 8.0 (heat of ionization = 47.4 kJ/mol as printed)) is reported as “− 86.2 kJ/mol” and the net protonation change on binding (no number given) [4] is reported as 0 protons.
For “Ocr chemically modified with EDC/HOBt and dimethylamine for 30 min (D-series) (from UniProt P03775 1-117) (natural protein)”, the Kd [1] was 5.8 nM.
“Ocr chemically modified with EDC/HOBt and ammonium hydroxide for 30 min (N-series) (from UniProt P03775 1-117) (natural protein)” was tested, and the Kd [1] was 1.82 nM.
“Ocr chemically modified with EDC/HOBt and dimethylamine for 180 min (D-series) (from UniProt P03775 1-117) (natural protein)” gave a Kd [1] of 26.6 nM.
Substance “Ocr chemically modified with EDC/HOBt and dimethylamine for 15 min (D-series) (from UniProt P03775 1-117) (natural protein)” has a stoichiometry N (Ocr dimer per molecule of M.EcoKI) [5] of 1 and a Kd [1] of 2.64 nM.
“Ocr chemically modified with EDC/HOBt and ammonium hydroxide for 15 min (N-series) (from UniProt P03775 1-117) (natural protein)” gave a Kd [1] of 0.56 nM.
Substance “Ocr chemically modified with EDC/HOBt and ammonium hydroxide for 120 min (N-series) (from UniProt P03775 1-117) (natural protein)” has a Kd [1] of 3.77 nM.
“Ocr chemically modified with EDC/HOBt and ammonium hydroxide for 60 min (N-series) (from UniProt P03775 1-117) (natural protein)” was tested, and the stoichiometry N (Ocr dimer per molecule of M.EcoKI) [5] was 1 and the Kd [1] was 1.9 nM.
For “Ocr chemically modified with EDC/HOBt and dimethylamine for 60 min (D-series) (from UniProt P03775 1-117) (natural protein)”, the Kd [1] was 19.7 nM.
“Ocr chemically modified with EDC/HOBt and dimethylamine for 120 min (D-series) (from UniProt P03775 1-117) (natural protein)” gave a Kd [1] of 23.1 nM.
